# B1: recombinant human RAD51 [human] / His6-Thioredoxin-RAD54-Flag (recombinant human RAD54, wild type) [human] (parent complex)
# chain 1: MAMQMQLEANADTSVEEESFGPQPISRLEQCGINANDVKKLEEAGFHTVEAVAYAPKKELINIKGISEAKADKILAEAAKLVPMGFTTATEFHQRRSEIIQITTGSKELDKLLQGGIETGSITEMFGEFRTGKTQICHTLAVTCQLPIDRGGGEGKAMYIDTEGTFRPERLLAVAERYGLSGSDVLDNVAYARAFNTDHQTQLLYQASAMMVESRYALLIVDSATALYRTDYSGRGELSARQMHLARFLRMLLRLADEFGVAVVITNQVVAQVDGAAMFAADPKKPIGGNIIAHASTTRLYLRKGRGETRICKIYDSPCLPEAEAMFAINADGVGDAKD
# chain 2: MRRSLAPSQLAKRKPEGRSCDDEDWQPGLVTPRKRKSSSETQIQECFLSPFRKPLSQLTNQPPCLDSSQHEAFIRSILSKPFKVPIPNYQGPLGSRALGLKRAGVRRALHDPLEKDALVLYEPPPLSAHDQLKLDKEKLPVHVVVDPILSKVLRPHQREGVKFLWECVTSRRIPGSHGCIMADEMGLGKTLQCITLMWTLLRQSPECKPEIDKAVVVSPSSLVKNWYNEVGKWLGGRIQPLAIDGGSKDEIDQKLEGFMNQRGARVSSPILIISYETFRLHVGVLQKGSVGLVICDEGHRLKNSENQTYQALDSLNTSRRVLISGTPIQNDLLEYFSLVHFVNSGILGTAHEFKKHFELPILKGRDAAASEADRQLGEERLRELTSIVNRCLIRRTSDILSKYLPVKIEQVVCCRLTPLQTELYKRFLRQAKPAEELLEGKMSVSSLSSITSLKKLCNHPALIYDKCVEEEDGFVGALDLFPPGYSSKALEPQLSGKMLVLDYILAVTRSRSSDKVVLVSNYTQTLDLFEKLCRARRYLYVRLDGTMSIKKRAKVVERFNSPSSPDFVFMLSSKAGGCGLNLIGANRLVMFDPDWNPANDEQAMARVWRDGQKKTCYIYRLLSAGTIEEKIFQRQSHKKALSSCVVDEEQDVERHFSLGELKELFILDEASLSDTHDRLHCRRCVNSRQIRPPPDGSDCTSDLAGWNHCTDKWGLRDEVLQAAWDAASTAITFVFHQRSHEEQRGLR
# Variants of: B1
# Test: pull-down (silver-stained gel, quantified); read off a plot
row,ratio to parent,Variant
1,~1.3,chain 2 T700D
2,~0.58,chain 2 T59D

# The remaining lines, values behind:
row,Variant,ratio to parent
1,"chain 2 T41D, chain 2 T59D, chain 2 T700D",~0.27
2,chain 2 T41D,~0.25
3,"chain 2 T41D, chain 2 T59D",~0.41

# Variants of: B1
# Test: as above
# Remark: another data set of the same source
row,ratio to parent,Variant
1,~1.2,chain 2 T700D
